Measurements taken from the supplement of paper PMC9170038.

Test system: K4 kissing-loop RNA reporter
Assay: apparent KD of K4 kissing-loop reporter; higher = weaker reporter binding
Settings: Eterna round: R107
Method: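 RNA-MaP round R107: designed RNA switches with theophylline, tryptophan, arginine or FMN aptamers are transcribed on-chip within common flanks. They are titrated with a labelled K4 kissing-loop RNA reporter in RNA-MaP buffer (100 mM Tris pH 7.5, 80 mM KCl, 4 mM MgCl2), without ligand or with the indicated ligand. Median apparent KD per design.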

[1] = input ligand: theophylline 20 uM
[2] = input ligand: tryptophan 2.4 mM
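Further: bound reporter read as fluorescence of individual clusters on recovered sequencing chips by microscopy, with normalized cluster intensities fitted with a binding model.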

Sequence | apparent KD of K4 kissing-loop reporter (input ligand: FMN 200 uM) [µM] | apparent KD of K4 kissing-loop reporter (input ligand: arginine 13.2 mM) [µM] | apparent KD of K4 kissing-loop reporter (input ligand: none) [µM] | apparent KD of K4 kissing-loop reporter [1] [µM] | apparent KD of K4 kissing-loop reporter [2] [µM]
GCAUCCUAGUCGGCCGCCACUGACAUGAGUGAUGUUCAUGUUCGUCAGUGAUGUUGACGUUGUUACAGGACCGGGACUAGGAUGC [KL-SSTryp-B8 Brourdwalk4 #Double KL] | 0.169 | 0.143 | 0.165 | 0.15 | 0.119
CGCGGCCGGCCGGAUACCAGUGACCCGCUGGAAACCGCGGGCCCAGAGUGAUGUUCGGGACACCCUUGGCAGCCGCCUGGGCGUG [#2 Same State - Theophylline B Attempt #2 (HarryS)] | 0.547 | 0.309 | 0.44 | 0.456 | 0.397
AGCCGAAAGGCGAGUGCUGUCACUCCGGAAGGAGCGCUCAAAAGAGCAGGUAGGUCGCCGGAGUGAUGUUCCGGUGCAGCACUCA [Omei KL Arginine A Exc B v4] | 0.594 | 0.408 | 0.58 | 0.751 | 0.623
AAUAGGGAUAGUGAUGUUAUCCCUUAUGAUACCAGUGCCAUCGGACACCCUUGGCAGCAUACGGGCAGUGAUGUUGUUCUUGGAG [Exclusion Theophylline A GF 15] | 0.103 | 0.0755 | 0.0786 | 0.0765 | 0.0793
CUGUUUGGUUGAGAGGUUGGGCGGAAUGAUACCAGUAUAUAAGAAUACCCUUGGCAGCAUAAGAAAGAUAUAGUGAUGUUGUAUA [SSTheophA.K] | 0.526 | 0.297 | 0.464 | 0.536 | 0.417
GAUUCAGUGAUGUUGGAAGGCGAGCGGGAUACCAGCCAAGACUCAGGCCCUUGGCAGCCCACAUAUCCCAGGUAGAUAGUCGCUC [Same State - Theophylline A (Freestyle 11)] | 0.271 | 0.265 | 0.254 | 0.293 | 0.27
AAAUCGUUCAGAAGGAGCGUGAAUUAUUCUUAAUUAUAUUAUACGAGUGAUGUUCGUGUUUCACAGGUAGGUCGCUGAUCGAUAA [JR_SSArginiB_Sub005] | 0.0944 | 0.126 | 0.0956 | 0.148 | 0.0841
GUAUCGCUAGGAGGAUAUUUCAAUUUGACUCUUUGAGUUAUUACGGAGUGAUGUUCCGAUUUACGGAAAGAAGGCCUAGUGAUAC [FMN B 12] | 0.14 | 0.17 | 0.202 | 0.172 | 0.179
GCGCGGCAGGCGGCCGCCACUCUGACGAGCCACAGUGAUGUUGUGGUCGGAGAAACGUCUUCAUAGAGGACCGGGUUUGUUGUUC [Same State Typtophan A GF 25] | 0.215 | 0.186 | 0.226 | 0.189 | 0.177
UGACUGGACUGAAGGAGCGGGCGAGACAAAGUCUCGAACUCUUAGUGAUGUUAGGAAAUAACCCAGGUAGGUCGCAGUCUAGUCU | 0.243 | 0.132 | 0.178 | 0.216 | 0.188
AGACUACCACACUGUCAAUAGACAGUGAACUAGGAUAUGCUGAUAAGCAGAAGGAGUGAUGUUCCCAGGUAGUCAAUAAAAUAAU [FmnAX 13 C66] | 0.17 | 0.185 | 0.231 | 0.331 | 0.223
UGAUACCAGACUGAUACCAGCCAGUGAUGUUGGCAAUAACCAAGGCGAGUCAAAGACUCGGGCCCUUGGCAGCAGUCUGGUAUCU [TheoBX 6 #SwitchBubble #StaticStem] | 0.134 | 0.15 | 0.133 | 0.143 | 0.136
UCCUGCUGUCUGCCACGAAAGUGGAUUGAUACCAGAGUCGAAAGACUCCCUUGGCAGCGAGUGAUGUUCGAAGCAGGUAAAUAAA [MatMod 2 - Jieux - Exclusion - Theophylline A] | 0.21 | 0.215 | 0.234 | 0.22 | 0.188
UCUGGAGCAUAUGAUACCAGCAGUGAGAGACAGGAAGUAUAGUGAUGUUAUAUGAGAGAAUGCCCUUGGCAGCGUGUGUAGUGGG [SSTheophylB.N] | 0.174 | 0.137 | 0.128 | 0.17 | 0.104
UCCUAGGUUCGUCGGCGAAAGCCCUGCGAAGGAGCGUGCGAAAGUACAGGUAGGUCGCGCAGUGAUGUUGCACCUAGGUAAUAAA [#07 K4 Arginine A Exclusion] | 0.905 | 0.191 | 0.319 | 0.892 | 0.375
